{
  "source": "the supplement of paper PMC10567573",
  "test": "protein stability index of a GFP-peptide fusion (GPS, HEK-293T) (PSI 1-6); higher = more stable",
  "data": [
    {"protein": "PRNSCITCPQCHRSLILDDRGLRG", "values": [
      {"measurement": "protein stability index", "setting": "parent: IOH12704_21, c terminus: a fixed tail appended", "result": 2.06}
    ]},
    {"protein": "CVQCKMPVCYQCLEEGKHSSHEVK", "values": [
      {"measurement": "protein stability index", "setting": "parent: IOH12704_41, c terminus: a fixed tail appended", "result": 3.89}
    ]},
    {"protein": "LVVFTASMEIYGSAVADKLDNSRS", "note": "[DULLARD WT]", "values": [
      {"measurement": "protein stability index", "setting": "parent: IOH12711_22, c terminus: a fixed tail appended", "result": 2.76}
    ]},
    {"protein": "NIPFFPDLQITDQVALLRLTWSEL", "values": [
      {"measurement": "protein stability index", "setting": "parent: IOH12813_39, c terminus: a fixed tail appended", "result": 2.29}
    ]},
    {"protein": "VAHVESLQEKSQCALEEYVRSQYP", "values": [
      {"measurement": "protein stability index", "setting": "parent: IOH12813_56, c terminus: a fixed tail appended", "result": 3.61}
    ]},
    {"protein": "YGETDFHKQDGKAGLFSQEQYERN", "note": "[TMEM40 WT]", "values": [
      {"measurement": "protein stability index", "setting": "parent: IOH12831_5, c terminus: a fixed tail appended", "result": 4.04}
    ]},
    {"protein": "QKRYHCKECGKVFSQSAGLIQHQR", "values": [
      {"measurement": "protein stability index", "setting": "parent: IOH12838_52, c terminus: a fixed tail appended", "result": 3.14}
    ]},
    {"protein": "QCIECGKSFNRHCNLIRHQKIHTV", "values": [
      {"measurement": "protein stability index", "setting": "parent: IOH12838_62, c terminus: a fixed tail appended", "result": 3.73}
    ]},
    {"protein": "MTVEKEAPDAHFTVDKQNISLWPR", "note": "[CD207 WT]", "values": [
      {"measurement": "protein stability index", "setting": "parent: IOH12930_1, c terminus: a fixed tail appended", "result": 3.23}
    ]},
    {"protein": "YVPEKVKKAEKKLEENPYDLDAWS", "note": "[CSTF3 WT]", "values": [
      {"measurement": "protein stability index", "setting": "parent: IOH12987_3, c terminus: a fixed tail appended", "result": 2.14}
    ]},
    {"protein": "LWKMKPRRNLEEDDYLHKDTGETS", "values": [
      {"measurement": "protein stability index", "setting": "parent: IOH13052_3, c terminus: a fixed tail appended", "result": 4.46}
    ]},
    {"protein": "WMLTRKQFGLLSFFFAVLHAIYSL", "values": [
      {"measurement": "protein stability index", "setting": "parent: IOH13052_27, c terminus: a fixed tail appended", "result": 1.71}
    ]},
    {"protein": "SGLVRRLWRSRVVPDREEGGSGGG", "note": "[SMAD6 WT]", "values": [
      {"measurement": "protein stability index", "setting": "parent: IOH13078_2, c terminus: a fixed tail appended", "result": 4.12}
    ]},
    {"protein": "YQSYFKTIEELQQKILCSKSENAR", "values": [
      {"measurement": "protein stability index", "setting": "parent: IOH13096_18, c terminus: a fixed tail appended", "result": 1.93}
    ]},
    {"protein": "PAVDLNQVLNETRNQYEALVETNR", "values": [
      {"measurement": "protein stability index", "setting": "parent: IOH13096_37, c terminus: a fixed tail appended", "result": 3.33}
    ]},
    {"protein": "TLAALLLNRSESDIRYLLGYVSQQ", "note": "[FEM1B WT]", "values": [
      {"measurement": "protein stability index", "setting": "parent: IOH13134_4, c terminus: a fixed tail appended", "result": 2.44}
    ]},
    {"protein": "VRIQNPSLRENDFIEIELDRQELT", "values": [
      {"measurement": "protein stability index", "setting": "parent: IOH13159_45, c terminus: a fixed tail appended", "result": 2.38}
    ]},
    {"protein": "SLRENDFIEIELDRQELTYQELLR", "values": [
      {"measurement": "protein stability index", "setting": "parent: IOH13159_46, c terminus: a fixed tail appended", "result": 2.87}
    ]},
    {"protein": "YQELLRVCCCELGVNPDQVEKIRK", "values": [
      {"measurement": "protein stability index", "setting": "parent: IOH13159_49, c terminus: a fixed tail appended", "result": 2.07}
    ]},
    {"protein": "VCCCELGVNPDQVEKIRKLPNTLL", "values": [
      {"measurement": "protein stability index", "setting": "parent: IOH13159_50, c terminus: a fixed tail appended", "result": 1.91}
    ]},
    {"protein": "EENMERIGEEVRQLMEKLREKQLS", "values": [
      {"measurement": "protein stability index", "setting": "parent: IOH13216_14, c terminus: a fixed tail appended", "result": 4.44}
    ]},
    {"protein": "HSLRAVSTDPPHHDHHDEFCLMP", "values": [
      {"measurement": "protein stability index", "setting": "parent: IOH13216_18, c terminus: native", "result": 2.27}
    ]},
    {"protein": "RMVPALPPKRMLGADREFIEARRR", "values": [
      {"measurement": "protein stability index", "setting": "parent: IOH13259_22, c terminus: a fixed tail appended", "result": 3.67}
    ]},
    {"protein": "VVLKLFLSFSGSDVQNKLKESAQC", "values": [
      {"measurement": "protein stability index", "setting": "parent: IOH13259_29, c terminus: a fixed tail appended", "result": 2.49}
    ]},
    {"protein": "LHQETQLIHVYLPLTSHILRAFVN", "values": [
      {"measurement": "protein stability index", "setting": "parent: IOH13259_67, c terminus: a fixed tail appended", "result": 2.4}
    ]},
    {"protein": "FWNFKQMWDSKKIGLRQHHCRKCG", "note": "[WDFY2 WT]", "values": [
      {"measurement": "protein stability index", "setting": "parent: IOH13317_50, c terminus: a fixed tail appended", "result": 2}
    ]},
    {"protein": "QEAKLLHWNGRHKPWDFPSVHNDL", "note": "[GLT8D2 WT]", "values": [
      {"measurement": "protein stability index", "setting": "parent: IOH13397_52, c terminus: a fixed tail appended", "result": 2.77}
    ]}
  ]
}
